Source: article PMC6769508
Where “and” joins values, the source holds several entries; their conditions need not be identical. Equal values may be shown once.

Tests used:
[1] = molecular target: TeSasA, T. elongatus SasA (wild type, full-length) (Thermosynechococcus elongatus); assay: native MS; TeSasA or TeSasAN alone; 150 mM ammonium acetate, pH 6.8
[2] = molecular target: TeKaiCDD, T. elongatus KaiC mutant with Ser431 and Thr432 substituted by aspartate residues (Thermosynechococcus elongatus) (UniProt Q79V60); assay: native MS; TeKaiCDD (20 µM) titrated with KaiB or SasA proteins, incubated at 37 °C for 6 h, buffer-exchanged into 150 mM ammonium acetate, pH 6.8; nanoflow ESI
Sequence of TeKaiCDD, T. elongatus KaiC mutant with Ser431 and Thr432 substituted by aspartate residues (Thermosynechococcus elongatus) (Q79V60 other isoform, or with tags, fused parts or gaps mutant): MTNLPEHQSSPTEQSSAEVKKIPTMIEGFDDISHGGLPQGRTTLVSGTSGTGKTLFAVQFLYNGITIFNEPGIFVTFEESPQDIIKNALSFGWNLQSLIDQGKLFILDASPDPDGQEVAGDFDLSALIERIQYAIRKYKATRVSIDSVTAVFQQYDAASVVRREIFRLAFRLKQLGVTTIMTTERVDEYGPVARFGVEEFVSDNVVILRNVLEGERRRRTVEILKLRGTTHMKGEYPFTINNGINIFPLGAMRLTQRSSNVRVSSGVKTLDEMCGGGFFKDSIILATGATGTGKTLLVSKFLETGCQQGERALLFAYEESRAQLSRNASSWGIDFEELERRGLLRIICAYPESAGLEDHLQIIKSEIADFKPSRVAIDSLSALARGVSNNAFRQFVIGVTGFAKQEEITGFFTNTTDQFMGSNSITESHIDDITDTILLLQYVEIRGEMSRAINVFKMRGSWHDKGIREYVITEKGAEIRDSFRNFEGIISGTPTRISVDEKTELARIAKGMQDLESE

| Substance | stoichiometry N [1] | stoichiometry N (binder chains per KaiC hexamer) [2] |
| --- | --- | --- |
| TeSasA, T. elongatus SasA (wild type, full-length) (natural protein) | 2 | 2 and 4 and 6 |
| TeSasAN, the N-terminal domain of T. elongatus SasA (domain or fragment) |  | 2 and 3 and 4 |
